{"source": "patent US20250206828A1", "about": "“ANTI-ADENOSINE RECEPTOR (A2aR) ANTIBODIES AND THE USE THEREOF” (Adept Therapeutics Inc., priority 2022, published 2025)", "molecules": {"B1": {"name": "Hu3F6-H3/Hu3F6-L5: humanized anti-A2aR IgG1 FES antibody; HCVR SEQ ID NO:60, LCVR SEQ ID NO:80 (antibody, V domains shown)", "VH": "EVQLVQSGAEVKKPGASVKVSCKTSGFAFTSYWMNWVRQAPGQGLEWIGRIDPSDSEAHYHHKFWGRATLTVDTSSSTVYMELSSLRSEDTAVYYCLRSLYGKGDYWGHGTTVTVSS", "VL": "DVVMTQTPLSLSVTPGQPASISCRSSQSLVHRNGNTYLEWYLQKPGQSPQLLIYKVSNRFSGVPDRFSGSGSGTDFTLKISRVEAEDVGVYYCYQGSHVPLTFGGGTKVEIK"}, "B2": {"name": "Hu3F6-H5/Hu3F6-L5: humanized anti-A2aR IgG1 FES antibody; HCVR SEQ ID NO:62, LCVR SEQ ID NO:80 (antibody, V domains shown)", "VH": "B1 VH with H61A, T74K", "VL": "B1 VL"}}, "key": {"[1]": {"tested_on": "human PBMCs (CD4 and CD8 T cells)", "experiment": "Restoration of CD25 and CD69 activation markers on NECA-suppressed CD4 and CD8 T cells", "assay_type": "cell-based", "settings": "test substance 1 μg/ml"}, "[2]": {"tested_on": "human PBMCs (CD4 T, CD8 T, NK cells)", "experiment": "Restoration of IFN-γ and IL-2 production of NECA-suppressed T cells and NK cells (intracellular cytokine staining)", "assay_type": "cell-based", "settings": "for % of cells IFNγ+, CD4 T cells / % of cells IFNγ+, CD8 T cells / % of cells IFNγ+, NK cells / % of cells IL-2+, CD4 T cells / % of cells IL-2+, CD8 T cells: NECA, test substance 1 μg/ml; for restored production of IFN-γ and IL-2 by NECA-suppressed CD8 T cell: compared with AB928, CPI-444 and AZD4635; for restored production of IFN-γ and IL-2 by NECA-suppressed NK cells: compared with the tested small molecule inhibitors"}, "[3]": {"target": "T1, human A2aR-expressing CHO cells (Homo sapiens, UniProt P29274)", "T1 construct": "expressed in transfected cells; host or cells: CHO", "T1 sequence (P29274 whole entry)": "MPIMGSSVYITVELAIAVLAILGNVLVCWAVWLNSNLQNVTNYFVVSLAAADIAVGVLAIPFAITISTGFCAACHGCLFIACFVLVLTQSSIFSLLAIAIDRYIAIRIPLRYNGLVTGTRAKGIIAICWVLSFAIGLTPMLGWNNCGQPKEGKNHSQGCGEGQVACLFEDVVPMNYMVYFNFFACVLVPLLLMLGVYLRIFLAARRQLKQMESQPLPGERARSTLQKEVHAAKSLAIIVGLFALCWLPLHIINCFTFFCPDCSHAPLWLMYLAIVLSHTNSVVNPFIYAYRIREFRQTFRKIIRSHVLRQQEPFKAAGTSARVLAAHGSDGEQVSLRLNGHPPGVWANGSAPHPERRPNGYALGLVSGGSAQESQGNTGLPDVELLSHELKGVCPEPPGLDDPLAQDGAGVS", "experiment": "pH-sensitive dye (Zenon pHrodo iFL RED) based internalization assay", "assay_type": "cell-based", "settings": "24 hours", "source_text": "The Invitrogen™ Zenon™ pHrodo™ iFL RED human IgG Labeling Reagents (Cat. Z25612) Z25612) is low-pH sensitive dye and was used to determine the internalizing properties of the exemplary anti-A2aR antibodies following manufacture's instruction. The internalization of antibodies coupled with the Zenon™ pHrodo™ iFL RED human IgG Labeling reagents increase the fluorescence signal at low pH intracellular compartment in a cell, providing a method for visualizing internalization under fluorescent microscopy.\nTwenty-five microliters (25 μL) of 4× working solution of Zenon™ pHrodo™ iFL IgG Labeling Reagent were also prepared in freestyle CHO expression medium and then added to each well of a 96-well plate containing antibodies. The solutions in the 96-well plate were mixed and incubated for 5 minutes at room temperature to allow the labeling complexes to form. Afterwards, fifty microliters (50 μl) of 2×10^6/ml human A2aR-expressing CHO cells were added to each well containing labeled antibodies. Cells were then incubated with the labeling complex for 24 hours under standard cell culture conditions. Cells were analyzed under immunofluorescent microscope (Invitrogen EVOS cell imaging system M5000) to visualize the internalization of antibodies by cells. Internalization of antibody was imaged using EVOS imaging systems (Invitrogen)."}, "[4]": {"target": "T2, human A2aR on the cell surface of human PBMCs (Homo sapiens, UniProt P29274)", "T2 construct": "host or cells: human PBMCs (CD4 T, CD8 T, NK, NKT subsets)", "T2 sequence (P29274 whole entry)": "as above", "experiment": "Binding of anti-A2aR antibodies to human PBMC subsets (CD4 T, CD8 T, NK, NKT cells; FACS)", "settings": "for binding to human T cells (CD4, CD8), NK cells and NKT cells: human PBMCs, FACS", "method": "Human and cynomolgus PBMCs were purchased from Cytologics LLC (San Diego, CA) and iQ Biosciences (Berkeley, CA), respectively. 10^6 human and/or cynomolgus PBMCs in 100 μl FACS buffer (1×DPBS, 2% FBS) were incubated with anti-A2aR antibodies at 4° C. for 30 minutes. After wash, samples were stained with PE-conjugated goat-anti-human Fc antibody (1:400, Jackson ImmunoResearch Labs, Cat. 109-116-098) and other surface markers using cynomolgus cross-reactive APC/cy7-anti-CD3 (BD Bioscience, Cat. 557757), BV421-anti-CD4 (Biolegend, Cat. 317433), BV650-anti-CD8 (Biolegend, Cat. 301042) and BV711-anti-CD56 (BD Bioscience, Cat. 742661) for 30 minutes, and Zombie Green fixable Viability dye (Biolegend, Cat. 423111) were used according to manufacturer's instruction to define live immune cell subsets. After wash with FACS buffer, cells were analyzed on FACSAria (BD). Data was analyzed using Flowjo (Becton Dickinson)."}, "[5]": {"tested_on": "human PBMCs (CD4 T, CD8 T, NK cells)", "experiment": "Restoration of IFN-γ and IL-2 production of NECA-suppressed T cells and NK cells (intracellular cytokine staining)", "assay_type": "cell-based", "settings": "anti-CD3/28 Dynabeads activated, 0.1 μM NECA; for restoring IFN-γ production in human CD4 T suppressed by NECA (FIG. 5A): compared with AB928, AZD4635 and CPI-444; for restoring IL-2 production in human CD4 T suppressed by NECA (FIG. 5B): compared with AZD4635 and CPI-444"}}, "note": "Positions count from the first letter of the chain named."}
{"molecule": "B1", "values": [{"measurement": "% of cells CD25+, CD4 T cells", "setting": "[1]", "value": 61.5, "unit": "%"}, {"measurement": "% of cells CD25+, CD8 T cells", "setting": "[1]", "value": 36, "unit": "%"}, {"measurement": "% of cells CD69+, CD4 T cells", "setting": "[1]", "value": 57.9, "unit": "%"}, {"measurement": "% of cells CD69+, CD8 T cells", "setting": "[1]", "value": 54.5, "unit": "%"}, {"measurement": "% of cells IFNγ+, CD4 T cells", "setting": "[2]", "value": 4.35, "unit": "%"}, {"measurement": "% of cells IFNγ+, CD8 T cells", "setting": "[2]", "value": 14.1, "unit": "%"}, {"measurement": "% of cells IFNγ+, NK cells", "setting": "[2]", "value": 17.8, "unit": "%"}, {"measurement": "% of cells IL-2+, CD4 T cells", "setting": "[2]", "value": 13.4, "unit": "%"}, {"measurement": "% of cells IL-2+, CD8 T cells", "setting": "[2]", "value": 3.29, "unit": "%"}, {"measurement": "restored production of IFN-γ and IL-2 by NECA-suppressed CD8 T cell", "setting": "[2]", "value": "restored production of IFN-γ and IL-2 by NECA-suppressed CD8 T cell, with higher potency"}, {"measurement": "restored production of IFN-γ and IL-2 by NECA-suppressed NK cells", "setting": "[2]", "value": "restored production of IFN-γ and IL-2 by NECA-suppressed NK cells, with a potency higher"}, {"measurement": "induction of internalization (pHrodo fluorescence microscopy, FIG. 3)", "setting": "[3]", "value": "internalization can be induced"}, {"measurement": "% of A2aR+ CD4+ T cells", "setting": "[4]; human 1 PBMC", "value": 0.43, "unit": "%"}, {"measurement": "% of A2aR+ CD8+ T cells", "setting": "[4]; human 1 PBMC", "value": 0.04, "unit": "%"}, {"measurement": "% of A2aR+ NK cells", "setting": "[4]; human 1 PBMC", "value": 0.69, "unit": "%"}, {"measurement": "% of A2aR+ NKT cells", "setting": "[4]; human 1 PBMC", "value": 0.46, "unit": "%"}, {"measurement": "% of A2aR+ CD4+ T cells", "setting": "[4]; human 2 PBMC", "value": 0.44, "unit": "%"}, {"measurement": "% of A2aR+ CD8+ T cells", "setting": "[4]; human 2 PBMC", "value": 0.04, "unit": "%"}, {"measurement": "% of A2aR+ NK cells", "setting": "[4]; human 2 PBMC", "value": 0.75, "unit": "%"}, {"measurement": "% of A2aR+ NKT cells", "setting": "[4]; human 2 PBMC", "value": 0.55, "unit": "%"}, {"measurement": "binding to human T cells (CD4, CD8), NK cells and NKT cells", "setting": "[4]", "value": "bound to various human and cynomolgus CD4+ and CD8+ T cells"}, {"measurement": "restoring IFN-γ production in human CD4 T suppressed by NECA (FIG. 5A)", "setting": "[5]; listed as Hu3F6-VH3/Hu3F6-VL5", "value": "higher potency in restoring IFN-γ production"}, {"measurement": "restoring IFN-γ production in human CD4 T suppressed by NECA (FIG. 5A)", "setting": "[5]; listed as Hu3F6-VH3/VL5", "value": "can restore the intracellular IFN gamma and IL2 production"}, {"measurement": "restoring IL-2 production in human CD4 T suppressed by NECA (FIG. 5B)", "setting": "[5]", "value": "can restore the intracellular IFN gamma and IL2 production"}]}
{"molecule": "B2", "values": [{"measurement": "% of cells CD25+, CD4 T cells", "setting": "[1]", "value": 62.5, "unit": "%"}, {"measurement": "% of cells CD25+, CD8 T cells", "setting": "[1]", "value": 35.8, "unit": "%"}, {"measurement": "% of cells CD69+, CD4 T cells", "setting": "[1]", "value": 58.1, "unit": "%"}, {"measurement": "% of cells CD69+, CD8 T cells", "setting": "[1]", "value": 56.1, "unit": "%"}, {"measurement": "% of cells IFNγ+, CD4 T cells", "setting": "[2]", "value": 4.29, "unit": "%"}, {"measurement": "% of cells IFNγ+, CD8 T cells", "setting": "[2]", "value": 14.8, "unit": "%"}, {"measurement": "% of cells IFNγ+, NK cells", "setting": "[2]", "value": 16.6, "unit": "%"}, {"measurement": "% of cells IL-2+, CD4 T cells", "setting": "[2]", "value": 13.2, "unit": "%"}, {"measurement": "% of cells IL-2+, CD8 T cells", "setting": "[2]", "value": 2.98, "unit": "%"}, {"measurement": "restored production of IFN-γ and IL-2 by NECA-suppressed CD8 T cell", "setting": "[2]", "value": "restored production of IFN-γ and IL-2 by NECA-suppressed CD8 T cell, with higher potency"}, {"measurement": "restored production of IFN-γ and IL-2 by NECA-suppressed NK cells", "setting": "[2]", "value": "restored production of IFN-γ and IL-2 by NECA-suppressed NK cells, with a potency higher"}, {"measurement": "induction of internalization (pHrodo fluorescence microscopy, FIG. 3)", "setting": "[3]", "value": "internalization can be induced"}, {"measurement": "% of A2aR+ CD8+ T cells", "setting": "[4]; human 1 PBMC", "value": 0.05, "unit": "%"}, {"measurement": "% of A2aR+ NK cells", "setting": "[4]; human 1 PBMC", "value": 0.66, "unit": "%"}, {"measurement": "% of A2aR+ NKT cells", "setting": "[4]; human 1 PBMC", "value": 0.42, "unit": "%"}, {"measurement": "% of A2aR+ CD8+ T cells", "setting": "[4]; human 2 PBMC", "value": 0.03, "unit": "%"}, {"measurement": "% of A2aR+ NK cells", "setting": "[4]; human 2 PBMC", "value": 0.62, "unit": "%"}, {"measurement": "% of A2aR+ NKT cells", "setting": "[4]; human 2 PBMC", "value": 0.48, "unit": "%"}, {"measurement": "binding to human T cells (CD4, CD8), NK cells and NKT cells", "setting": "[4]", "value": "bound to various human and cynomolgus CD4+ and CD8+ T cells"}, {"measurement": "restoring IFN-γ production in human CD4 T suppressed by NECA (FIG. 5A)", "setting": "[5]; listed as Hu3F6-VH5/Hu3F6-VL5", "value": "higher potency in restoring IFN-γ production"}, {"measurement": "restoring IFN-γ production in human CD4 T suppressed by NECA (FIG. 5A)", "setting": "[5]; listed as Hu3F6-VH5/VL5", "value": "can restore the intracellular IFN gamma and IL2 production"}, {"measurement": "restoring IL-2 production in human CD4 T suppressed by NECA (FIG. 5B)", "setting": "[5]", "value": "can restore the intracellular IFN gamma and IL2 production"}]}
